This assay concerns the target T1, human recombinant RIPK3 (human, UniProt Q9Y572 1-518).
T1 construct: RIPK3, human, bought recombinant protein; also called rhRIPK3; source: bought: Mybiosource cod; MBS1442585
Briefly: BLI; rhRIPK3 immobilised on AR2G sensor (10 μg/mL in 10 mM NaAc pH 4.5); rhGADD45β as analyte, 3.1–100 nM; 25 mM Tris pH 7.5, 100 mM NaCl, 0.02% Tween 20, 0.1% BSA; 25 °C; 1:1 Langmuir model; apparent. Particulars: both partners purified.

T1 sequence (Q9Y572 whole entry): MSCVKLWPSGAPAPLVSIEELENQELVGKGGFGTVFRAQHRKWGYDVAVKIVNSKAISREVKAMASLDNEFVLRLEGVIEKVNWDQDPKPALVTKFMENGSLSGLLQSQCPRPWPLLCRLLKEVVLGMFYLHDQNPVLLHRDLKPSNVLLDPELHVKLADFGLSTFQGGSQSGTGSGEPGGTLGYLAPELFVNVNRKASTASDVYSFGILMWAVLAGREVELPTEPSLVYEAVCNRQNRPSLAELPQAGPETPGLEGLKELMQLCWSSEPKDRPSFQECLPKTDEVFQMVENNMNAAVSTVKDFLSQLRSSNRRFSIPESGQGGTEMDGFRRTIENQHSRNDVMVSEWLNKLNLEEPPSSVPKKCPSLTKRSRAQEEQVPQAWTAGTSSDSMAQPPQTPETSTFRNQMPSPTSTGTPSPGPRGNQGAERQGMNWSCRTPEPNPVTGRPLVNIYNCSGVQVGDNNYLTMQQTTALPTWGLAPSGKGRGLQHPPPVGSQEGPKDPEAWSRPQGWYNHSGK

B1: recombinant human GADD45β (natural protein, UniProt O75293 1-160, looked up)
chain: MTLEELVACDNAAQKMQTVTAAVEELLVAAQRQDRLTVGVYESAKLMNVDPDSVVLCLLAIDEEEEDDIALQIHFTLIQSFCCDNDINIVRVSGMQRLAQLLGEPAETQGTTEARDLHCLLVTNPHTDAWKSHGLVEVASYCEESRGNNQWVPYISLQER
notes: GADD45β, human, recombinant; also called rhGADD45β; Growth Arrest and DNA Damage-inducible beta
For B1, the Kd was 1.73 nM.

The values are drawn from PMC12827253, “GADD45β inhibits RIPK3-mediated NF-κB activation by interfering with NEMO-RIPK1-RIPK3 interactions” (Cell Death Discovery, 2025).
